# T1: GRIP1_1, Q9Y3R0
# T1 sequence (Q9Y3R0 48-146, limits assumed, looked up): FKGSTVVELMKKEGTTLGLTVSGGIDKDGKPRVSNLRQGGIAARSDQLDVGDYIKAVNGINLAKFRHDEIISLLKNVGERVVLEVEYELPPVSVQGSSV
# T2: LNX2_3, Q8N448
# T2 sequence (Q8N448 463-564, limits assumed, looked up): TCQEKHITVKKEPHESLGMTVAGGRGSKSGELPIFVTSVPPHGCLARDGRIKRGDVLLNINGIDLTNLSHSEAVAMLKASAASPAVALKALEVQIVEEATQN
# T3: NHERF3_2, Q5T2W1
# T3 sequence (Q5T2W1 129-225, limits assumed, looked up): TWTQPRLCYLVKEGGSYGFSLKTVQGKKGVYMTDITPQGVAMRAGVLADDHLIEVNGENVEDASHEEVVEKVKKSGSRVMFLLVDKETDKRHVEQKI
# T4: MPDZ_2, O75970
# T4 sequence (O75970 252-347, limits assumed, looked up): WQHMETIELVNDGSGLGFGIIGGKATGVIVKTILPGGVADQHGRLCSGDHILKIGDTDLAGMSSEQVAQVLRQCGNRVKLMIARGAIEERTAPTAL
# T5: PDZD4, Q76G19
# T5 sequence (Q76G19 125-224, limits assumed, looked up): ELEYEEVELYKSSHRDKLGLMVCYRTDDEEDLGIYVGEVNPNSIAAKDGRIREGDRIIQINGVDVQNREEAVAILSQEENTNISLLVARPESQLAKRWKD
# T6: INTU, Q9ULD6
# T6 sequence (Q9ULD6 180-273, limits assumed, looked up): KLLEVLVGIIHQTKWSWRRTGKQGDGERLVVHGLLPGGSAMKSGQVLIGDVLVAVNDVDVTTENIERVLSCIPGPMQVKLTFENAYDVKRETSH
# T7: APBA3_2, O96018
# T7 sequence (O96018 480-570, limits assumed, looked up): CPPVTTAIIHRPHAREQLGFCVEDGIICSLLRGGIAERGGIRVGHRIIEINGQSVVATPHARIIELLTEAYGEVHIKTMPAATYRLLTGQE
# T8: PDZD2_6, O15018
# T8 sequence (O15018 2745-2839, limits assumed, looked up): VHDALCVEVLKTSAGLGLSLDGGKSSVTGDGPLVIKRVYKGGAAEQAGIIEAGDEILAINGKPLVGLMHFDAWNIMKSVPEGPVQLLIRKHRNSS
# T9: SHROOM4, Q9ULL8
# T9 sequence (Q9ULL8 5-102, limits assumed, looked up): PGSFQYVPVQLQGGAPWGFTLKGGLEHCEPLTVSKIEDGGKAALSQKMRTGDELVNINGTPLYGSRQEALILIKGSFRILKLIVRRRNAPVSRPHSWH
# T10: SHANK2, Q9UPX8
# T10 sequence (Q9UPX8 621-730, limits assumed, looked up): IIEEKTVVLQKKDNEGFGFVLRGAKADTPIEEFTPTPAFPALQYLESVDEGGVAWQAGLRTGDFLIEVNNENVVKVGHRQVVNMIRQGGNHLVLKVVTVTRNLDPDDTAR
# T11: PDZD11, Q5EBL8
# T11 sequence (Q5EBL8 42-139, limits assumed, looked up): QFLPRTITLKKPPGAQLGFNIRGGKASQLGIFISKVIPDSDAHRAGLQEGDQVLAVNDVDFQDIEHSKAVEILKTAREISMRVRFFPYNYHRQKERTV
# T12: PTPN13_5, Q12923
# T12 sequence (Q12923 1877-1975, limits assumed, looked up): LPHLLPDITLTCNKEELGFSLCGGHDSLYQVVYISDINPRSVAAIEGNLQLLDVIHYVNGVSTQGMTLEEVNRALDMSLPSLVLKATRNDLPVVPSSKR
# B1: ABCC4, O15439 (peptide)
# chain: STLTIFETAL
# B2: TJP2, Q9UDY2 (peptide)
# chain: QSARYRDTEL
# B3: KIR3DL3, Q8N743 (peptide)
# chain: PKTPPTDTSV
# Molecular target: T1, GRIP1_1, Q9Y3R0
# Assay: holdup assay
# Set-up: key: below the threshold = too weak to quantify, mostly under pKd 3.1 to 4
# Conditions: plain residues with an end cap or a label only (N-terminal biotin on a linker: ttds)
row,pKd,Binder
1,below the threshold,B1
2,below the threshold,B2
3,below the threshold,B3

# Molecular target: T2, LNX2_3, Q8N448
# Assay: holdup assay
# Set-up: key: below the threshold = too weak to quantify, mostly under pKd 3.1 to 4
# Conditions: plain residues with an end cap or a label only (N-terminal biotin on a linker: ttds)
row,pKd,Binder
1,below the threshold,B1
2,3.53,B2
3,below the threshold,B3

# Molecular target: RIMS2, Q9UQ26
# Assay: holdup assay
# Set-up: key: below the threshold = too weak to quantify, mostly under pKd 3.1 to 4
# Conditions: plain residues with an end cap or a label only (N-terminal biotin on a linker: ttds)
# RIMS2, Q9UQ26, sequence (Q9UQ26 637-758): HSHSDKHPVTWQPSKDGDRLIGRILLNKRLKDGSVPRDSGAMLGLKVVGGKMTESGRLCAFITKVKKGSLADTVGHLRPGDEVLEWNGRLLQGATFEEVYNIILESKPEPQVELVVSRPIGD
row,pKd,Binder
1,below the threshold,B1
2,below the threshold,B2
3,below the threshold,B3

# Molecular target: DLG5_2, Q8TDM6
# Assay: holdup assay
# Set-up: key: below the threshold = too weak to quantify, mostly under pKd 3.1 to 4
# Conditions: plain residues with an end cap or a label only (N-terminal biotin on a linker: ttds)
# DLG5_2, Q8TDM6, sequence (Q8TDM6 714-800): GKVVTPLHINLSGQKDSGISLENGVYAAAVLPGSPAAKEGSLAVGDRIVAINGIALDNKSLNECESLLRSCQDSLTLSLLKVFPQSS
row,pKd,Binder
1,below the threshold,B1
2,below the threshold,B2
3,below the threshold,B3

# Molecular target: LMO7, Q8WWI1
# Assay: holdup assay
# Set-up: key: below the threshold = too weak to quantify, mostly under pKd 3.1 to 4
# Conditions: plain residues with an end cap or a label only (N-terminal biotin on a linker: ttds)
# LMO7, Q8WWI1, sequence (Q8WWI1 1037-1138): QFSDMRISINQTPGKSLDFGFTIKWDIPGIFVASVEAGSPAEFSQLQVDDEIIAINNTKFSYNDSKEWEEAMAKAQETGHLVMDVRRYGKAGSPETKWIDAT
row,pKd,Binder
1,below the threshold,B1
2,below the threshold,B2
3,below the threshold,B3

# Molecular target: T3, NHERF3_2, Q5T2W1
# Assay: holdup assay
# Set-up: key: below the threshold = too weak to quantify, mostly under pKd 3.1 to 4
# Conditions: plain residues with an end cap or a label only (N-terminal biotin on a linker: ttds)
row,pKd,Binder
1,4.06,B1
2,below the threshold,B2
3,below the threshold,B3

# Molecular target: T4, MPDZ_2, O75970
# Assay: holdup assay
# Set-up: key: below the threshold = too weak to quantify, mostly under pKd 3.1 to 4
# Conditions: plain residues with an end cap or a label only (N-terminal biotin on a linker: ttds)
row,pKd,Binder
1,below the threshold,B1
2,below the threshold,B2
3,below the threshold,B3

# Molecular target: T5, PDZD4, Q76G19
# Assay: holdup assay
# Set-up: key: below the threshold = too weak to quantify, mostly under pKd 3.1 to 4
# Conditions: plain residues with an end cap or a label only (N-terminal biotin on a linker: ttds)
row,pKd,Binder
1,4.08,B1
2,below the threshold,B2
3,4.14,B3

# Molecular target: T6, INTU, Q9ULD6
# Assay: holdup assay
# Set-up: key: below the threshold = too weak to quantify, mostly under pKd 3.1 to 4
# Conditions: plain residues with an end cap or a label only (N-terminal biotin on a linker: ttds)
row,pKd,Binder
1,below the threshold,B1
2,below the threshold,B2
3,below the threshold,B3

# Molecular target: T7, APBA3_2, O96018
# Assay: holdup assay
# Set-up: key: below the threshold = too weak to quantify, mostly under pKd 3.1 to 4
# Conditions: plain residues with an end cap or a label only (N-terminal biotin on a linker: ttds)
row,pKd,Binder
1,below the threshold,B1
2,below the threshold,B2
3,below the threshold,B3

# Molecular target: TJP1_1, Q07157
# Assay: holdup assay
# Set-up: key: below the threshold = too weak to quantify, mostly under pKd 3.1 to 4
# Conditions: plain residues with an end cap or a label only (N-terminal biotin on a linker: ttds)
# TJP1_1, Q07157, sequence (Q07157 18-120): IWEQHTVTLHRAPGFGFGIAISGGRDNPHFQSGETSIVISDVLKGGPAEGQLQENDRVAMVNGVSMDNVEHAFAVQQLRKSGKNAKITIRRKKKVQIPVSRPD
row,pKd,Binder
1,below the threshold,B1
2,below the threshold,B2
3,below the threshold,B3

# Molecular target: MAGI1_4, Q96QZ7
# Assay: holdup assay
# Set-up: key: below the threshold = too weak to quantify, mostly under pKd 3.1 to 4
# Conditions: plain residues with an end cap or a label only (N-terminal biotin on a linker: ttds)
# MAGI1_4, Q96QZ7, sequence (Q96QZ7 other isoform, or with tags, fused parts or gaps): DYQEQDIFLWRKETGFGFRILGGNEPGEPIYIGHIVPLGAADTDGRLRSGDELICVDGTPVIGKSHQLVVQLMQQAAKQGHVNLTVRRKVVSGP
row,pKd,Binder
1,below the threshold,B1
2,below the threshold,B2
3,below the threshold,B3

# Molecular target: MAGI1_6, Q96QZ7
# Assay: holdup assay
# Set-up: key: below the threshold = too weak to quantify, mostly under pKd 3.1 to 4
# Conditions: plain residues with an end cap or a label only (N-terminal biotin on a linker: ttds)
# MAGI1_6, Q96QZ7, sequence (Q96QZ7 1146-1238): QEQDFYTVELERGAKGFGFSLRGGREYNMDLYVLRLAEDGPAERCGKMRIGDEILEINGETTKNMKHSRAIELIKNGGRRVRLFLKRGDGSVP
row,pKd,Binder
1,4.22,B1
2,4.71,B2
3,4.22,B3

# Molecular target: MAGI3_5, Q5TCQ9
# Assay: holdup assay
# Set-up: key: below the threshold = too weak to quantify, mostly under pKd 3.1 to 4
# Conditions: plain residues with an end cap or a label only (N-terminal biotin on a linker: ttds)
# MAGI3_5, Q5TCQ9, sequence (Q5TCQ9 847-941): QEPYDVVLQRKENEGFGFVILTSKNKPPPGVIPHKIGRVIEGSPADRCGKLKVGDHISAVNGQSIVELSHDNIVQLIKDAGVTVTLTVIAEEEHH
row,pKd,Binder
1,4.39,B1
2,below the threshold,B2
3,below the threshold,B3

# Molecular target: T8, PDZD2_6, O15018
# Assay: holdup assay
# Set-up: key: below the threshold = too weak to quantify, mostly under pKd 3.1 to 4
# Conditions: plain residues with an end cap or a label only (N-terminal biotin on a linker: ttds)
row,pKd,Binder
1,below the threshold,B1
2,below the threshold,B2
3,below the threshold,B3

# Molecular target: DLG2_1, Q15700
# Assay: holdup assay
# Set-up: key: below the threshold = too weak to quantify, mostly under pKd 3.1 to 4
# Conditions: plain residues with an end cap or a label only (N-terminal biotin on a linker: ttds)
row,pKd,Binder
1,4.21,B1
2,below the threshold,B2
3,below the threshold,B3

# Molecular target: MAGI3_3, Q5TCQ9
# Assay: holdup assay
# Set-up: key: below the threshold = too weak to quantify, mostly under pKd 3.1 to 4
# Conditions: plain residues with an end cap or a label only (N-terminal biotin on a linker: ttds)
# MAGI3_3, Q5TCQ9, sequence (Q5TCQ9 572-655): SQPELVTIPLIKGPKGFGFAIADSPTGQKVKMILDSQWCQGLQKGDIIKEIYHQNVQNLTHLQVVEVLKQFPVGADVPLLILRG
row,pKd,Binder
1,below the threshold,B1
2,below the threshold,B2
3,below the threshold,B3

# Molecular target: PARD3B_2, Q8TEW8
# Assay: holdup assay
# Set-up: key: below the threshold = too weak to quantify, mostly under pKd 3.1 to 4
# Conditions: plain residues with an end cap or a label only (N-terminal biotin on a linker: ttds)
# PARD3B_2, Q8TEW8, sequence (Q8TEW8 376-471): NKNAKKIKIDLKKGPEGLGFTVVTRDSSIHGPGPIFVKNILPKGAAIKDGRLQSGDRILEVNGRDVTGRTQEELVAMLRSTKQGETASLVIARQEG
row,pKd,Binder
1,below the threshold,B1
2,below the threshold,B2
3,4.37,B3

# Molecular target: T9, SHROOM4, Q9ULL8
# Assay: holdup assay
# Set-up: key: below the threshold = too weak to quantify, mostly under pKd 3.1 to 4
# Conditions: plain residues with an end cap or a label only (N-terminal biotin on a linker: ttds)
row,pKd,Binder
1,below the threshold,B1
2,below the threshold,B2
3,below the threshold,B3

# Molecular target: T10, SHANK2, Q9UPX8
# Assay: holdup assay
# Set-up: key: below the threshold = too weak to quantify, mostly under pKd 3.1 to 4
# Conditions: plain residues with an end cap or a label only (N-terminal biotin on a linker: ttds)
row,pKd,Binder
1,4.85,B1
2,below the threshold,B2
3,below the threshold,B3

# Molecular target: PTPN13_2, Q12923
# Assay: holdup assay
# Set-up: key: below the threshold = too weak to quantify, mostly under pKd 3.1 to 4
# Conditions: plain residues with an end cap or a label only (N-terminal biotin on a linker: ttds)
# PTPN13_2, Q12923, sequence (Q12923 1363-1462): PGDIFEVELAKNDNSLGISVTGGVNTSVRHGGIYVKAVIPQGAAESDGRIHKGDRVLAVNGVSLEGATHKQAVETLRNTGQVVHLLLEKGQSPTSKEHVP
row,pKd,Binder
1,below the threshold,B1
2,below the threshold,B2
3,below the threshold,B3

# Molecular target: MAGIX, Q9H6Y5
# Assay: holdup assay
# Set-up: key: below the threshold = too weak to quantify, mostly under pKd 3.1 to 4
# Conditions: plain residues with an end cap or a label only (N-terminal biotin on a linker: ttds)
# MAGIX, Q9H6Y5, sequence (Q9H6Y5 118-211): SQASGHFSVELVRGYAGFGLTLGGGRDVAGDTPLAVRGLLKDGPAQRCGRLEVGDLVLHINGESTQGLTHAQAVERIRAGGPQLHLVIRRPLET
row,pKd,Binder
1,below the threshold,B1
2,below the threshold,B2
3,below the threshold,B3

# Molecular target: T11, PDZD11, Q5EBL8
# Assay: holdup assay
# Set-up: key: below the threshold = too weak to quantify, mostly under pKd 3.1 to 4
# Conditions: plain residues with an end cap or a label only (N-terminal biotin on a linker: ttds)
row,pKd,Binder
1,4.46,B1
2,below the threshold,B2
3,4.3,B3

# Molecular target: T12, PTPN13_5, Q12923
# Assay: holdup assay
# Set-up: key: below the threshold = too weak to quantify, mostly under pKd 3.1 to 4
# Conditions: plain residues with an end cap or a label only (N-terminal biotin on a linker: ttds)
row,pKd,Binder
1,below the threshold,B1
2,below the threshold,B2
3,below the threshold,B3

# Molecular target: MAGI3_6, Q5TCQ9
# Assay: holdup assay
# Set-up: key: below the threshold = too weak to quantify, mostly under pKd 3.1 to 4
# Conditions: plain residues with an end cap or a label only (N-terminal biotin on a linker: ttds)
# MAGI3_6, Q5TCQ9, sequence (Q5TCQ9 1014-1103): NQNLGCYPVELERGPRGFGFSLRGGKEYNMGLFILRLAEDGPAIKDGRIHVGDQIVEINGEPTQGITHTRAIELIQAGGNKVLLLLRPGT
row,pKd,Binder
1,4.21,B1
2,4.72,B2
3,below the threshold,B3
